B1: Blo t 5-Fve (two-in-one chimeric wild type) fusion protein (protein)
chain: QEHKPKKDDFRNEFDHLLIEQANHAIEKGEHQLLYLQHQLDELNENKSKELQEKIIRELDVVCAMIEGAQGALERELKRTDLNILERFNYEEAQTLSKILLKDLKETEQKVKDIQTQSATSLTFQLAYLVKKIDFDYTPNWGRGTPSSYIDNLTFPKVLTDKKYSYRVVVNGSDLGVESNFAVTPSGGQTINFLQYNKGYGVADTKTIQVFVVIPDTGNSEEYIIAEWKKT
B2: Blo t 5 (recombinant major house dust mite allergen from Blomia tropicalis) (protein)
chain: QEHKPKKDDFRNEFDHLLIEQANHAIEKGEHQLLYLQHQLDELNENKSKELQEKIIRELDVVCAMIEGAQGALERELKRTDLNILERFNYEEAQTLSKILLKDLKETEQKVKDIQTQ

Columns and labels:
[1] = target: human IgE from serum of a representative allergic subject with high IgE reactivity to house dust mite allergens (human); experiment: competitive inhibition ELISA, human serum IgE, GST-Blo t5 on plate
[2] = target: human IgE from serum of a representative allergic subject with high IgE reactivity to house dust mite allergens (human); experiment: competitive inhibition ELISA, human serum IgE, GST-Blo t5 on plate, inhibitor at 10 µg/ml

Binder | maximum inhibition of IgE binding to GST-Blo t5 [1] | inhibition of IgE binding to GST-Bt5 [2]
B1 | 70% | 
B2 |  | 100%
